In US20200199241A1 (Chugai, published 2020):

T1: human FcγRIIa(R) (human, UniProt P12318 36-217)
T1 construct: also called FcgRIIaR; FcγRIIa type R
T1 chain: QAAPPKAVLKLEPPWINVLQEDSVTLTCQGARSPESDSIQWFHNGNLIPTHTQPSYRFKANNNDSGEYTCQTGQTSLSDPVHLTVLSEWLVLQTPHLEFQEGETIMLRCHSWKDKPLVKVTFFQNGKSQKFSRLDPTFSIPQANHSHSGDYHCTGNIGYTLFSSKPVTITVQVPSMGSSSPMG

T2: human FcγRIIa(H) (human, UniProt P12318 36-217)
T2 construct: also called FcgRIIaH; FcγRIIa type H
T2 sequence: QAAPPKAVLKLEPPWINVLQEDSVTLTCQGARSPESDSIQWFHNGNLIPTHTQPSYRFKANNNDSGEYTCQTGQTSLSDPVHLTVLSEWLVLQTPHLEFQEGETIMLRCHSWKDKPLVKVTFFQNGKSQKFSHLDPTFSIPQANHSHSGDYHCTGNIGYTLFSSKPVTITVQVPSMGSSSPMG

T3: human FcγRIIb (human, UniProt P31994 43-217, limits assumed)
T3 construct: also called FcgRIIb
T3 sequence: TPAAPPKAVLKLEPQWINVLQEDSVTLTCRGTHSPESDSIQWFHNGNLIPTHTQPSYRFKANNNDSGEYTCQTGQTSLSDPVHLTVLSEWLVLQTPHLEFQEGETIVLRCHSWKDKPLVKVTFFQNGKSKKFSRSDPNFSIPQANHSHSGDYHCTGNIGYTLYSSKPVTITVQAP


Legend:
Assay in all cases: SPR (Biacore);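 note: antibody variants captured on sensor chip, Fcγ receptor flowed over at 25 °C, bound receptor normalized to amount of captured antibody, expressed relative to reference antibody set as 100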
human FcγRIa = target: T4, human FcγRIa (human, UniProt P12314 16-292, limits assumed)
T4 construct: also called FcgRIa; FcγRI (CD64)

human FcγRIIa(R) = target: T1, human FcγRIIa(R)
human FcγRIIa(H) = target: T2, human FcγRIIa(H)
human FcγRIIb = target: T3, human FcγRIIb
human FcγRIIIa(F) = target: T5, human FcγRIIIa(F) (human, UniProt P08637 17-208, limits assumed)
T5 construct: also called FcgRIIIaF; allotype F158
T5 sequence (P08637 other isoform, or with tags, fused parts or gaps limits assumed): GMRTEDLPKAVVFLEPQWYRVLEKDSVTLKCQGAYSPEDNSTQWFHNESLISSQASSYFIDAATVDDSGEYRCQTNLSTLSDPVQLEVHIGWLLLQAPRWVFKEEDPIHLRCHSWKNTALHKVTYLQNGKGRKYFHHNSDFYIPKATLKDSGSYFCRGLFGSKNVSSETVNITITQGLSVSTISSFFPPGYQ

T4 sequence (P12314 16-292 limits assumed): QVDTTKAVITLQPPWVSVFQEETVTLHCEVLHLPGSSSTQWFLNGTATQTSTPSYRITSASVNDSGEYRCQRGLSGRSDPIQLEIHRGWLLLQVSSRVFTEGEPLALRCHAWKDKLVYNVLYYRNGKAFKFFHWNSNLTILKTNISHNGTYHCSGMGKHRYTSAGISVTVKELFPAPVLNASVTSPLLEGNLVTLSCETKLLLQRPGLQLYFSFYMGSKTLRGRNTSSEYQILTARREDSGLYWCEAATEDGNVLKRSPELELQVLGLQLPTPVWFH

relative binding activity (human FcγRIa)	relative binding activity (human FcγRIIa(R))	relative binding activity (human FcγRIIa(H))	relative binding activity (human FcγRIIb)	relative binding activity (human FcγRIIIa(F))	Binder
97 % of GpH7-B3/GpL16-k0	26 % of GpH7-B3/GpL16-k0	2 % of GpH7-B3/GpL16-k0	29 % of GpH7-B3/GpL16-k0	2 % of GpH7-B3/GpL16-k0	GpH7-B3 variant S267W/GpL16-k0 (antibody, human IgG1, copies: 2 + 2) heavy: not shown light: DIVMTQSPLSLPVTPGEPASISCQASESLVHSNRNTYLHWYLQKPGQSPQLLIYKVSNRFSGVPDRFSGSGSGTDFTLKISRVEAEDVGVYYCSQNTHVPPTFGQGTKVEIE
64 % of GpH7-B3/GpL16-k0	38 % of GpH7-B3/GpL16-k0	19 % of GpH7-B3/GpL16-k0	24 % of GpH7-B3/GpL16-k0	6 % of GpH7-B3/GpL16-k0	GpH7-B3 variant S239H/GpL16-k0 (antibody, human IgG1, copies: 2 + 2) heavy: not shown light: DIVMTQSPLSLPVTPGEPASISCQASESLVHSNRNTYLHWYLQKPGQSPQLLIYKVSNRFSGVPDRFSGSGSGTDFTLKISRVEAEDVGVYYCSQNTHVPPTFGQGTKVEIE
1 % of GpH7-B3/GpL16-k0	-1 % of GpH7-B3/GpL16-k0	-1 % of GpH7-B3/GpL16-k0	-2 % of GpH7-B3/GpL16-k0	-1 % of GpH7-B3/GpL16-k0	GpH7-B3 variant P238R/GpL16-k0 (antibody, human IgG1, copies: 2 + 2) heavy: not shown light: DIVMTQSPLSLPVTPGEPASISCQASESLVHSNRNTYLHWYLQKPGQSPQLLIYKVSNRFSGVPDRFSGSGSGTDFTLKISRVEAEDVGVYYCSQNTHVPPTFGQGTKVEIE
96 % of GpH7-B3/GpL16-k0	57 % of GpH7-B3/GpL16-k0	58 % of GpH7-B3/GpL16-k0	68 % of GpH7-B3/GpL16-k0	29 % of GpH7-B3/GpL16-k0	GpH7-B3 variant S239Q/GpL16-k0 (antibody, human IgG1, copies: 2 + 2) heavy: not shown light: DIVMTQSPLSLPVTPGEPASISCQASESLVHSNRNTYLHWYLQKPGQSPQLLIYKVSNRFSGVPDRFSGSGSGTDFTLKISRVEAEDVGVYYCSQNTHVPPTFGQGTKVEIE
68 % of GpH7-B3/GpL16-k0	1 % of GpH7-B3/GpL16-k0	1 % of GpH7-B3/GpL16-k0	3 % of GpH7-B3/GpL16-k0	1 % of GpH7-B3/GpL16-k0	GpH7-B3 variant S267K/GpL16-k0 (antibody, human IgG1, copies: 2 + 2) heavy: not shown light: DIVMTQSPLSLPVTPGEPASISCQASESLVHSNRNTYLHWYLQKPGQSPQLLIYKVSNRFSGVPDRFSGSGSGTDFTLKISRVEAEDVGVYYCSQNTHVPPTFGQGTKVEIE
77 % of GpH7-B3/GpL16-k0	20 % of GpH7-B3/GpL16-k0	11 % of GpH7-B3/GpL16-k0	12 % of GpH7-B3/GpL16-k0	3 % of GpH7-B3/GpL16-k0	GpH7-B3 variant S239F/GpL16-k0 (antibody, human IgG1, copies: 2 + 2) heavy: not shown light: DIVMTQSPLSLPVTPGEPASISCQASESLVHSNRNTYLHWYLQKPGQSPQLLIYKVSNRFSGVPDRFSGSGSGTDFTLKISRVEAEDVGVYYCSQNTHVPPTFGQGTKVEIE

Continued, binder first:

Binder	relative binding activity (human FcγRIa)	relative binding activity (human FcγRIIa(R))	relative binding activity (human FcγRIIa(H))	relative binding activity (human FcγRIIb)	relative binding activity (human FcγRIIIa(F))
GpH7-B3 variant P238Q/GpL16-k0 (antibody, human IgG1, copies: 2 + 2) heavy: not shown light: DIVMTQSPLSLPVTPGEPASISCQASESLVHSNRNTYLHWYLQKPGQSPQLLIYKVSNRFSGVPDRFSGSGSGTDFTLKISRVEAEDVGVYYCSQNTHVPPTFGQGTKVEIE	84 % of GpH7-B3/GpL16-k0	19 % of GpH7-B3/GpL16-k0	4 % of GpH7-B3/GpL16-k0	43 % of GpH7-B3/GpL16-k0	-1 % of GpH7-B3/GpL16-k0
GpH7-B3 variant S267F/GpL16-k0 (antibody, human IgG1, copies: 2 + 2) heavy: not shown light: DIVMTQSPLSLPVTPGEPASISCQASESLVHSNRNTYLHWYLQKPGQSPQLLIYKVSNRFSGVPDRFSGSGSGTDFTLKISRVEAEDVGVYYCSQNTHVPPTFGQGTKVEIE	91 % of GpH7-B3/GpL16-k0	13 % of GpH7-B3/GpL16-k0	1 % of GpH7-B3/GpL16-k0	18 % of GpH7-B3/GpL16-k0	0 % of GpH7-B3/GpL16-k0
GpH7-B3 variant S267P/GpL16-k0 (antibody, human IgG1, copies: 2 + 2) heavy: not shown light: DIVMTQSPLSLPVTPGEPASISCQASESLVHSNRNTYLHWYLQKPGQSPQLLIYKVSNRFSGVPDRFSGSGSGTDFTLKISRVEAEDVGVYYCSQNTHVPPTFGQGTKVEIE	78 % of GpH7-B3/GpL16-k0	0 % of GpH7-B3/GpL16-k0	2 % of GpH7-B3/GpL16-k0	5 % of GpH7-B3/GpL16-k0	0 % of GpH7-B3/GpL16-k0
GpH7-B3 variant S239P/GpL16-k0 (antibody, human IgG1, copies: 2 + 2) heavy: not shown light: DIVMTQSPLSLPVTPGEPASISCQASESLVHSNRNTYLHWYLQKPGQSPQLLIYKVSNRFSGVPDRFSGSGSGTDFTLKISRVEAEDVGVYYCSQNTHVPPTFGQGTKVEIE	89 % of GpH7-B3/GpL16-k0	49 % of GpH7-B3/GpL16-k0	4 % of GpH7-B3/GpL16-k0	61 % of GpH7-B3/GpL16-k0	-1 % of GpH7-B3/GpL16-k0
GpH7-B3 variant P238S/GpL16-k0 (antibody, human IgG1, copies: 2 + 2) heavy: not shown light: DIVMTQSPLSLPVTPGEPASISCQASESLVHSNRNTYLHWYLQKPGQSPQLLIYKVSNRFSGVPDRFSGSGSGTDFTLKISRVEAEDVGVYYCSQNTHVPPTFGQGTKVEIE	91 % of GpH7-B3/GpL16-k0	32 % of GpH7-B3/GpL16-k0	13 % of GpH7-B3/GpL16-k0	28 % of GpH7-B3/GpL16-k0	3 % of GpH7-B3/GpL16-k0
GpH7-B3 variant S239K/GpL16-k0 (antibody, human IgG1, copies: 2 + 2) heavy: not shown light: DIVMTQSPLSLPVTPGEPASISCQASESLVHSNRNTYLHWYLQKPGQSPQLLIYKVSNRFSGVPDRFSGSGSGTDFTLKISRVEAEDVGVYYCSQNTHVPPTFGQGTKVEIE	6 % of GpH7-B3/GpL16-k0	4 % of GpH7-B3/GpL16-k0	4 % of GpH7-B3/GpL16-k0	1 % of GpH7-B3/GpL16-k0	0 % of GpH7-B3/GpL16-k0
GpH7-B3 variant S267R/GpL16-k0 (antibody, human IgG1, copies: 2 + 2) heavy: not shown light: DIVMTQSPLSLPVTPGEPASISCQASESLVHSNRNTYLHWYLQKPGQSPQLLIYKVSNRFSGVPDRFSGSGSGTDFTLKISRVEAEDVGVYYCSQNTHVPPTFGQGTKVEIE	78 % of GpH7-B3/GpL16-k0	-6 % of GpH7-B3/GpL16-k0	-1 % of GpH7-B3/GpL16-k0	0 % of GpH7-B3/GpL16-k0	0 % of GpH7-B3/GpL16-k0
GpH7-B3 variant S267Y/GpL16-k0 (antibody, human IgG1, copies: 2 + 2) heavy: not shown light: DIVMTQSPLSLPVTPGEPASISCQASESLVHSNRNTYLHWYLQKPGQSPQLLIYKVSNRFSGVPDRFSGSGSGTDFTLKISRVEAEDVGVYYCSQNTHVPPTFGQGTKVEIE	96 % of GpH7-B3/GpL16-k0	10 % of GpH7-B3/GpL16-k0	2 % of GpH7-B3/GpL16-k0	14 % of GpH7-B3/GpL16-k0	1 % of GpH7-B3/GpL16-k0
GpH7-B3 variant P238T/GpL16-k0 (antibody, human IgG1, copies: 2 + 2) heavy: not shown light: DIVMTQSPLSLPVTPGEPASISCQASESLVHSNRNTYLHWYLQKPGQSPQLLIYKVSNRFSGVPDRFSGSGSGTDFTLKISRVEAEDVGVYYCSQNTHVPPTFGQGTKVEIE	67 % of GpH7-B3/GpL16-k0	19 % of GpH7-B3/GpL16-k0	6 % of GpH7-B3/GpL16-k0	8 % of GpH7-B3/GpL16-k0	0 % of GpH7-B3/GpL16-k0
GpH7-B3 variant S239Y/GpL16-k0 (antibody, human IgG1, copies: 2 + 2) heavy: not shown light: DIVMTQSPLSLPVTPGEPASISCQASESLVHSNRNTYLHWYLQKPGQSPQLLIYKVSNRFSGVPDRFSGSGSGTDFTLKISRVEAEDVGVYYCSQNTHVPPTFGQGTKVEIE	69 % of GpH7-B3/GpL16-k0	11 % of GpH7-B3/GpL16-k0	5 % of GpH7-B3/GpL16-k0	12 % of GpH7-B3/GpL16-k0	6 % of GpH7-B3/GpL16-k0
GpH7-B3 variant P238W/GpL16-k0 (antibody, human IgG1, copies: 2 + 2) heavy: not shown light: DIVMTQSPLSLPVTPGEPASISCQASESLVHSNRNTYLHWYLQKPGQSPQLLIYKVSNRFSGVPDRFSGSGSGTDFTLKISRVEAEDVGVYYCSQNTHVPPTFGQGTKVEIE	99 % of GpH7-B3/GpL16-k0	25 % of GpH7-B3/GpL16-k0	2 % of GpH7-B3/GpL16-k0	13 % of GpH7-B3/GpL16-k0	-1 % of GpH7-B3/GpL16-k0
GpH7-B3 variant S267H/GpL16-k0 (antibody, human IgG1, copies: 2 + 2) heavy: not shown light: DIVMTQSPLSLPVTPGEPASISCQASESLVHSNRNTYLHWYLQKPGQSPQLLIYKVSNRFSGVPDRFSGSGSGTDFTLKISRVEAEDVGVYYCSQNTHVPPTFGQGTKVEIE	95 % of GpH7-B3/GpL16-k0	27 % of GpH7-B3/GpL16-k0	3 % of GpH7-B3/GpL16-k0	42 % of GpH7-B3/GpL16-k0	1 % of GpH7-B3/GpL16-k0
